B1: TBX5 (parent)
chain: YQNHKITQLKIENNPFAKGFRGSD
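Further: lentivirally expressed fusions sorted by FACS into six bins by GFP to DsRed ratio, PSI derived from sequencing read proportions per bin multiplied by bin number.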

In the data set the parent is B1. Briefly: protein stability index of a GFP-peptide fusion (GPS, HEK-293T) (PSI 1-6); higher = more stable. The settings on record: c terminus: a fixed tail appended.
For the variant YQNHKITQLKIENFPFAKGFRGSD [N14F], the protein stability index amounted to 2.34.
Take YQNHKITQLKIENSPFAKGFRGSD [N14S]: the protein stability index worked out at 2.16.
For YQNHKITQLKIENHPFAKGFRGSD [N14H] the value was 2.36; for YQNHKITQLKIENKPFAKGFRGSD [N14K], 2.75.
For YQNHKITQLKIENGPFAKGFRGSD [N14G] the value was 2.46; for YQNHKITQLKIENRPFAKGFRGSD [N14R], 2.58.
With YQNHKITQLKIENDPFAKGFRGSD [N14D] the figure was 2.84; with YQNHKITQLKIENAPFAKGFRGSD [N14A], 2.61; with YQNHKITQLKIENNPQAKGFRGSD [F16Q], 3.44.
YQNHKITQLKIENNPIAKGFRGSD [F16I]: the protein stability index worked out at 3.
For YQNHKITQLKIENNPLAKGFRGSD [F16L] the value was 2.51; for YQNHKITQLKIENNPEAKGFRGSD [F16E], 3.64.
With YQNHKITQLKIENNPCAKGFRGSD [F16C] the figure was 3.17; with YQNHKITQLKIENNPNAKGFRGSD [F16N], 3.48; with YQNHKITQLKIENNPVAKGFRGSD [F16V], 2.73.
YQNHKITQLKIENNPSAKGFRGSD [F16S]: the protein stability index was determined as 3.56.
With YQNHKITQLKIENNPRAKGFRGSD [F16R], the protein stability index came out at 3.16.
With YQNHKITQLKIENNPMAKGFRGSD [F16M] the figure was 2.98.
YQNHKITQLKIENNPAAKGFRGSD [F16A]: the protein stability index is 3.12.
For YQNHKITQLKIENNPPAKGFRGSD [F16P] the value was 3.93; for YQNHKITQLKIENNPGAKGFRGSD [F16G], 2.83; for YQNHKITQLKIENNPTAKGFRGSD [F16T], 3.47.
As for YQNHKITQLKIENNPHAKGFRGSD [F16H], the protein stability index amounted to 3.54.
YQNHKITQLKIENNPWAKGFRGSD [F16W]: the protein stability index worked out at 1.93.
For the variant YQNHKITQLKIENNPYAKGFRGSD [F16Y], the protein stability index worked out at 2.46.
Regarding YQNHKITQLKIENNPDAKGFRGSD [F16D], the protein stability index worked out at 3.52.
For the variant YQNHKITQLKIENNPKAKGFRGSD [F16K], the protein stability index is 3.31.
As for YQNHKITQLKIEYNPFAKGFRGSD [N13Y], the protein stability index came to 1.77.
With YQNHKITQLKIEKNPFAKGFRGSD [N13K], the protein stability index amounted to 2.34.
With YQNHKITQLKIEDNPFAKGFRGSD [N13D], the protein stability index stood at 2.48.
With YQNHKITQLKIEHNPFAKGFRGSD [N13H] the figure was 2.15; with YQNHKITQLKIEANPFAKGFRGSD [N13A], 2.17; with YQNHKITQLKIEQNPFAKGFRGSD [N13Q], 2.55.
Take YQNHKITQLKIEGNPFAKGFRGSD [N13G]: the protein stability index is 1.81.
YQNHKITQLKIERNPFAKGFRGSD [N13R]: the protein stability index is 2.46.
With YQNHKITQLKIEMNPFAKGFRGSD [N13M] the figure was 2.29.
With YQNHKITQLKIETNPFAKGFRGSD [N13T] the figure was 2.25; with YQNHKITQLKIEPNPFAKGFRGSD [N13P], 2.25; with YQNHKITQLKIEVNPFAKGFRGSD [N13V], 1.81.
In the case of YQNHKITQLKIECNPFAKGFRGSD [N13C], the protein stability index turned out to be 2.31.
As for YQNHKITQLKIEINPFAKGFRGSD [N13I], the protein stability index was found to be 1.51.
With YQNHKITQLKIESNPFAKGFRGSD [N13S] the figure was 2.37; with YQNHKITQLKIEWNPFAKGFRGSD [N13W], 2.09; with YQNHKITQLKIEENPFAKGFRGSD [N13E], 2.36.
With YQNHKITQLKIELNPFAKGFRGSD [N13L] the figure was 1.67; with YQNHKITQLKIEFNPFAKGFRGSD [N13F], 1.94; with YQNHKITQLPIENNPFAKGFRGSD [K10P], 3.2.
As for YQNHKITQLLIENNPFAKGFRGSD [K10L], the protein stability index was found to be 2.03.
With YQNHKITQLQIENNPFAKGFRGSD [K10Q] the figure was 2.5; with YQNHKITQLTIENNPFAKGFRGSD [K10T], 2.74; with YQNHKITQLEIENNPFAKGFRGSD [K10E], 3.11.
For YQNHKITQLIIENNPFAKGFRGSD [K10I], the protein stability index came out at 1.63.
With YQNHKITQLGIENNPFAKGFRGSD [K10G] the figure was 1.85; with YQNHKITQLSIENNPFAKGFRGSD [K10S], 2.79; with YQNHKITQLWIENNPFAKGFRGSD [K10W], 1.95.
As for YQNHKITQLAIENNPFAKGFRGSD [K10A], the protein stability index is 2.91.
For YQNHKITQLFIENNPFAKGFRGSD [K10F] the value was 1.81; for YQNHKITQLMIENNPFAKGFRGSD [K10M], 2.23; for YQNHKITQLDIENNPFAKGFRGSD [K10D], 2.68.
With YQNHKITQLNIENNPFAKGFRGSD [K10N] the figure was 2.46; with YQNHKITQLHIENNPFAKGFRGSD [K10H], 2.2; with YQNHKITQLCIENNPFAKGFRGSD [K10C], 2.11.
With YQNHKITQLYIENNPFAKGFRGSD [K10Y] the figure was 2.17.
As to YQNHKITQLRIENNPFAKGFRGSD [K10R], the protein stability index was found to be 2.58.
For YQNHKITQLVIENNPFAKGFRGSD [K10V] the value was 2.02; for YQNHKITQMKIENNPFAKGFRGSD [L9M], 2.58; for YQNHKITQPKIENNPFAKGFRGSD [L9P], 2.84.
As for YQNHKITQVKIENNPFAKGFRGSD [L9V], the protein stability index is 4.05.
On to YQNHKITQYKIENNPFAKGFRGSD [L9Y], for which the protein stability index amounted to 2.31.
On to YQNHKITQWKIENNPFAKGFRGSD [L9W], for which the protein stability index was determined as 1.71.
Regarding YQNHKITQTKIENNPFAKGFRGSD [L9T], the protein stability index came out at 2.37.
With YQNHKITQRKIENNPFAKGFRGSD [L9R] the figure was 3.54; with YQNHKITQNKIENNPFAKGFRGSD [L9N], 3.01; with YQNHKITQQKIENNPFAKGFRGSD [L9Q], 3.19.
In the case of YQNHKITQSKIENNPFAKGFRGSD [L9S], the protein stability index turned out to be 3.07.
With YQNHKITQLKIENNPFFKGFRGSD [A17F], the protein stability index turned out to be 1.95.
With YQNHKITQLKIENNPFLKGFRGSD [A17L], the protein stability index came out at 2.34.
With YQNHKITQLKIENNPFEKGFRGSD [A17E] the figure was 3.12.
With YQNHKITQLKIENNPFRKGFRGSD [A17R] the figure was 2.12; with YQNHKITQLKIENNPFIKGFRGSD [A17I], 2.09.
Turning to YQNHKITQLKIENNPFWKGFRGSD [A17W], the protein stability index turned out to be 1.98.
Regarding YQNHKITQLKIENNPFTKGFRGSD [A17T], the protein stability index was 2.43.
YQNHKITQLKIENNPFKKGFRGSD [A17K]: the protein stability index was found to be 2.73.
Regarding YQNHKITQLKIENNPFCKGFRGSD [A17C], the protein stability index turned out to be 2.22.
For YQNHKITQLKIENNPFNKGFRGSD [A17N] the value was 2.21; for YQNHKITQLKIENNPFHKGFRGSD [A17H], 2.54.
For YQNHKITQLKIENNPFMKGFRGSD [A17M], the protein stability index was 2.5.
With YQNHKITQLKIENNPFDKGFRGSD [A17D] the figure was 2.73.
Turning to YQNHKITQLKIENNPFSKGFRGSD [A17S], the protein stability index was found to be 2.01.
In the case of YQNHKITQLKIENNPFVKGFRGSD [A17V], the protein stability index was found to be 2.73.
With YQNHKITQLKIENNPFPKGFRGSD [A17P] the figure was 2.77; with YQNHKITQLKIENNPFQKGFRGSD [A17Q], 2.54.
With YQNHKITQLKIENNPFGKGFRGSD [A17G], the protein stability index came to 2.27.
For YQNHKITQLKIENNPFYKGFRGSD [A17Y] the value was 2.18.

For the origin of these results see the supplement of paper PMC10567573.
